# Reference: US20110077204A1, “Agent for Targeted Drug Delivery To Cerebral Neurons” (Kagoshima University, priority 2006, published 2011)
# B1: glial cell line-derived neurotrophic factor (protein, UniProt P39905 78-211, looked up)
# Glial cell line-derived …: SPDKQMAVLPRRERNRQAAAANPENSRGKGRRGQRGKNRGCVLTAIHLNVTDLGLGYETKEELIFRYCSGSCDAAETTYDKILKNLSRNRRLVSDKVGQACCRPIAFDDDLSFLDDNLVYHILRKHSAKRCGCI
# notes: neurotrophic factor, literature report
# Key:
# raphe nuclei = conditions: in vivo; cited from earlier work
# brain neurons [1] = conditions: rat, in vivo
# brain neurons [2] = conditions: rat, in vivo; remark: listed apart in the source
# brain parenchyma = conditions: injected directly into the cerebrospinal fluid; cited from earlier work
molecule,measurement,setting,value
N=C(N)c1ccc(/C=C/c2ccc(C(=N)N)cc2O)cc1 [fluorogold],Appearance of label in raphe nuclei,raphe nuclei,the label appeared in the raphe nuclei
cholera toxin,Appearance of label in raphe nuclei,raphe nuclei,the label appeared in the raphe nuclei
cholera toxin B-subunit [CTB],Non-specific infiltration through brain surface or ventricle surface,brain neurons [1],does not infiltrate indiscriminately through the brain surface or the ventricle surface
same,Uptake by cerebellar Purkinje cells,brain neurons [1],accumulated in the neurons of the raphe nuclei and Purkinje cells
same,"Uptake by other cell populations (cerebral neocortex, cerebral paleocortex, hypothalamus, thalamus, brainstem)",brain neurons [1],incorporated
same,Uptake by raphe nuclei neurons,brain neurons [1],accumulated in the neurons of the raphe nuclei and Purkinje cells
horseradish peroxidase [HRP],Detectable level of uptake of HRP label by neurons,brain neurons [2],not confirmed
B1,Effect on dopaminergic condition,brain parenchyma,can improve the dopaminergic condition
same,Uptake by brain parenchyma,brain parenchyma,incorporated into brain parenchyma
